In data set [1] the target is T1, 3Dpol WT (RNA-dependent RNA polymerase) (poliovirus, UniProt P03300 1749-2209). The experiment in a line: NMR.
Data set [2] has as its target T1, 3Dpol WT (RNA-dependent RNA polymerase). The experiment in a line: NMR. This is another data set of the same source.

Like-named read-outs stand apart in the source and are kept apart here.

T1 sequence (P03300 1749-2209): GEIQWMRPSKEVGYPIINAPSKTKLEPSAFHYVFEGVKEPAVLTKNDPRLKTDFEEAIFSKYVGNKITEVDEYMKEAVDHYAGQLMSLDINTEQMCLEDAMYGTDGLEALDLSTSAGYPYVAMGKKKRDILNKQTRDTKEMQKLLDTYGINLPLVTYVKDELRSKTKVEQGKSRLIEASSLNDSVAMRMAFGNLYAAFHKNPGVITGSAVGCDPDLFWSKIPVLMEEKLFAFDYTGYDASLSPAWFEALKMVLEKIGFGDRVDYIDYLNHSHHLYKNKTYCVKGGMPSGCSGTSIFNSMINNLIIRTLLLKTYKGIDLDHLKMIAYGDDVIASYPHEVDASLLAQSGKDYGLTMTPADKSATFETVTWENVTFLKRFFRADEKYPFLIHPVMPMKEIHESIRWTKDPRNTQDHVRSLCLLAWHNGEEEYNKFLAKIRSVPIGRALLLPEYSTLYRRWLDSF

B1: sym/sub RNA (dsRNA)
RNA 1: GCAUGGGCCC
RNA 2: GCAUGGGCCC
Consider B1, for which the binding result in data set [1] was “binds”.

B2: 3'-blocked sym/sub RNA (after 3'-dAMP incorporation) (dsRNA)
RNA 1: GCAUGGGCCCA
RNA 2: GCAUGGGCCCA
modifications: 3'-terminal 3'-deoxyadenosine (A11)
Consider B2, for which the binding result in data set [2] is recorded as “binds”.

For the origin of these results see publication PMC2989882.
